Experiment [1] concerns the target CD46, human (human) (UniProt P15529). Kind of experiment: flow cytometry; directly labelled antibody on siRNA knockdown SK-OV-3 cells. For orientation: In flow cytometry, cells or beads pass a laser one at a time.
For experiment [2] the target is unchanged. The experiment in a line: flow cytometry; directly labelled antibody on wild-type SK-OV-3 cells.
Experiment [3] has as its target CD59, human (human) (UniProt P13987). Kind of experiment: flow cytometry; directly labelled antibody on siRNA knockdown SK-OV-3 cells.
Experiment [4] shares this target. The experiment in a line: flow cytometry; directly labelled antibody on wild-type SK-OV-3 cells.
The target of experiment [5] is CD55, human (human) (UniProt P08174). Kind of experiment: flow cytometry; directly labelled antibody on siRNA knockdown SK-OV-3 cells.
Experiment [6] shares this target. The experiment in a line: flow cytometry; directly labelled antibody on wild-type SK-OV-3 cells.
For experiment [7], the target named is CD46, human (human) (UniProt P15529). Kind of experiment: FACS titration on carcinoma cells, secondary antibody; dilution 1/100, final 1 µg/ml.
Experiment [8] has the same target. The experiment in a line: FACS titration on carcinoma cells, secondary antibody; dilution 1/10, final 10 µg/ml.
Experiment [9] has the same target. Kind of experiment: FACS titration on carcinoma cells, secondary antibody; dilution 1/10000, final 0.01 µg/ml.
Experiment [10] shares this target. The experiment in a line: FACS titration on carcinoma cells, secondary antibody; dilution 1/1000, final 0.1 µg/ml.
Experiment [11] shares this target. The experiment in a line: FACS titration on carcinoma cells, secondary antibody; dilution 1/500, final 0.2 µg/ml.
For experiment [12] the target is unchanged. The experiment in a line: FACS titration on carcinoma cells; dilution just sufficient for a saturated staining.
The target is the same in experiment [13]. Kind of experiment: FACS titration on carcinoma cells, secondary antibody; dilution 1/5000, final 0.02 µg/ml.
Experiment [14] has the same target. The experiment in a line: FACS titration on carcinoma cells, secondary antibody; dilution 1/100, final 10 µg/ml.
Experiment [15] shares this target. Kind of experiment: FACS titration on carcinoma cells, secondary antibody; dilution 1/10000, final 0.1 µg/ml.
The target is the same in experiment [16]. The experiment in a line: FACS titration on carcinoma cells, secondary antibody; dilution 1/1000, final 1 µg/ml.
Experiment [17] has the same target. Kind of experiment: FACS titration on carcinoma cells, secondary antibody; dilution 1/10, final 100 µg/ml.
The target is the same in experiment [18]. Kind of experiment: FACS titration on carcinoma cells, secondary antibody; dilution 1/5000, final 0.2 µg/ml.
Experiment [19] has the same target. The experiment in a line: FACS titration on carcinoma cells, secondary antibody; dilution 1/500, final 2 µg/ml.
For experiment [20], the target named is CD55, human (human) (UniProt P08174). Kind of experiment: FACS titration on carcinoma cells, secondary antibody; dilution 1/100, final 10 µg/ml.
Experiment [21] has the same target. Kind of experiment: FACS titration on carcinoma cells, secondary antibody; dilution 1/10000, final 0.1 µg/ml.
Experiment [22] shares this target. The experiment in a line: FACS titration on carcinoma cells; dilution just sufficient for a saturated staining.
Experiment [23] has the same target. Kind of experiment: FACS titration on carcinoma cells, secondary antibody; dilution 1/1000, final 1 µg/ml.
For experiment [24] the target is unchanged. Kind of experiment: FACS titration on carcinoma cells, secondary antibody; dilution 1/10, final 100 µg/ml.
Experiment [25] shares this target. The experiment in a line: FACS titration on carcinoma cells, secondary antibody; dilution 1/5000, final 0.2 µg/ml.
Experiment [26] shares this target. The experiment in a line: FACS titration on carcinoma cells, secondary antibody; dilution 1/500, final 2 µg/ml.
Experiment [27] addresses CD59, human (human) (UniProt P13987). Kind of experiment: FACS titration on carcinoma cells, secondary antibody; dilution 1/100, final 10 µg/ml.
For experiment [28] the target is unchanged. Kind of experiment: FACS titration on carcinoma cells, secondary antibody; dilution 1/10000, final 0.1 µg/ml.
Experiment [29] shares this target. Kind of experiment: FACS titration on carcinoma cells; dilution just sufficient for a saturated staining.
Experiment [30] shares this target. Kind of experiment: FACS titration on carcinoma cells, secondary antibody; dilution 1/1000, final 1 µg/ml.
Experiment [31] has the same target. Kind of experiment: FACS titration on carcinoma cells, secondary antibody; dilution 1/10, final 100 µg/ml.
The target is the same in experiment [32]. The experiment in a line: FACS titration on carcinoma cells, secondary antibody; dilution 1/5000, final 0.2 µg/ml.
For experiment [33] the target is unchanged. The experiment in a line: FACS titration on carcinoma cells, secondary antibody; dilution 1/500, final 2 µg/ml.

Sequence of UniProt P15529 (P15529 35-392): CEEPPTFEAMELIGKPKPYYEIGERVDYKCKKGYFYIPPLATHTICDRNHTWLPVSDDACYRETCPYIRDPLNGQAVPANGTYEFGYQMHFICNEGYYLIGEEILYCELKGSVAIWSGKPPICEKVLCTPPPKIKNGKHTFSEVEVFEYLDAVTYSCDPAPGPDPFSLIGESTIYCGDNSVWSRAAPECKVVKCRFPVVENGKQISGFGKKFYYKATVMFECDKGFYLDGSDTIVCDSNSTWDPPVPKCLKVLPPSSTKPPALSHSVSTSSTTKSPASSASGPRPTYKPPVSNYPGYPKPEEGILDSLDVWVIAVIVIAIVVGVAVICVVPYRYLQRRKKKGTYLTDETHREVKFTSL
Sequence of UniProt P08174 (P08174 35-353): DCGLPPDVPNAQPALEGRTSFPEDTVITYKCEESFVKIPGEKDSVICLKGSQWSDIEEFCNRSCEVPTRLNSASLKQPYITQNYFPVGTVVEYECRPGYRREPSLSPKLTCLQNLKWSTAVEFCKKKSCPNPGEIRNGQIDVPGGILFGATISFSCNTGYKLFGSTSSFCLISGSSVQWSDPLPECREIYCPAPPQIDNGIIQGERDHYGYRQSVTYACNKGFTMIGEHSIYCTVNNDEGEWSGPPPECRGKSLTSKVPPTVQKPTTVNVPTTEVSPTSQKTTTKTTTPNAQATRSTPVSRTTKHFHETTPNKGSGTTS
Sequence of UniProt P13987 (P13987 26-102): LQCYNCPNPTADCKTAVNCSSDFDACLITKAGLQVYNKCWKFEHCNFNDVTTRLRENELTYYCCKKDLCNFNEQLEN

Take “anti-CD46-FITC antibody (BD Pharmingen, Cat. No. 555949)”: the FACS signal (FITC) with CD46, human (human) [1] is 662 FITC signal; with CD46, human (human) [2] it was 683 FITC signal.

As to “anti-CD59-PE antibody (BD Pharmingen, Cat. No. 555764)”, the FACS signal (PE) in the experiment with CD59, human (human) [3] was 649 PE signal; in the experiment with CD59, human (human) [4], 1190 PE signal.

As for “anti-CD-55-APC antibody (BD Pharmingen, Cat. No. 555696)”, the FACS signal (APC) was determined as 275 APC signal with CD55, human (human) [5] and 1450 APC signal in the experiment with CD55, human (human) [6].

Consider “anti-human CD46 antibody #383, clone M177 (Hycult, HM2103)”, for which the Geom. Mean. FITC (geom. mean FITC) with CD46, human (human) [7] amounted to 81800; in the experiment with CD46, human (human) [8], 84000; with CD46, human (human) [9] it was 14000; with CD46, human (human) [10], 50000; with CD46, human (human) [11] it was 74000; in the experiment with CD46, human (human) [13], 15800. Besides, the 1x conc. (1-time saturating concentration) with CD46, human (human) [12] was determined as 0.3 µg/mL.

As for “anti-human CD46 antibody #386, clone MEM258 (AbD Serotec, MCA2113)”, the Geom. Mean. FITC (geom. mean FITC) in the experiment with CD46, human (human) [14] is 79500; with CD46, human (human) [15] it was 53500; with CD46, human (human) [16] it was 75200; with CD46, human (human) [17], 87600; with CD46, human (human) [18] it was 66400; with CD46, human (human) [19], 75500. In the experiment with CD46, human (human) [12], the 1x conc. (1-time saturating concentration) worked out at 0.2 µg/mL.

On to “anti-human CD55 antibody #387, clone BRIC216 (AbD Serotec, MCA914)”, for which the Geom. Mean. FITC (geom. mean FITC) in the experiment with CD55, human (human) [20] worked out at 26900; in the experiment with CD55, human (human) [21], 24100; in the experiment with CD55, human (human) [23] it was 25100; with CD55, human (human) [24], 32000; with CD55, human (human) [25], 23700; in the experiment with CD55, human (human) [26], 25200. This substance also yielded a 1x conc. (1-time saturating concentration) with CD55, human (human) [22] of 0.1 µg/mL.

Consider “anti-human CD59 antibody #384, clone MEM43 (antibodies online, ABIN118751)”, for which the Geom. Mean. FITC (geom. mean FITC) came out at 95500 with CD59, human (human) [27]; 82400 with CD59, human (human) [28]; 95500 with CD59, human (human) [30]; 95200 with CD59, human (human) [31]; 94000 in the experiment with CD59, human (human) [32]; 95500 in the experiment with CD59, human (human) [33]. Moreover, the 1x conc. (1-time saturating concentration) in the experiment with CD59, human (human) [29] was 0.2 µg/mL.

Regarding “anti-human CD59 antibody #385, clone YTH53.1 (AbD Serotec, MCA715G)”, the Geom. Mean. PE (geom. mean PE) came out at 64200 in the experiment with CD59, human (human) [27]; 50100 with CD59, human (human) [28]; 60500 in the experiment with CD59, human (human) [30]; 55400 in the experiment with CD59, human (human) [31]; 53800 with CD59, human (human) [32]; 62700 with CD59, human (human) [33]. In addition, the 1x conc. (1-time saturating concentration) in the experiment with CD59, human (human) [29] is 0.1 µg/mL.
